# Laboratory results as given in publication PMC11722011, “NMR Studies on the Structure of Yeast Sis1 and the Dynamics of Its Interaction with Ssa1-EEVD” (Molecules, 2024).
# Ends that are not written are not given here.
# T1: full-length Sis1 (residues 1–352), Sis1_(1–352) (S. cerevisiae, UniProt P25294 1-352)
# T1 construct: Sis1, class B J-domain protein of S. cerevisiae, residues 1-352 (352 residues long); J-domain 1-72, GF 73-121, GM 122-178, CTDI 179-257, CTDII 258-335, dimerization domain 336-352; 15N- or 2H/15N-labelled; also called 15N-Sis1_(1–352); 2H-15N-Sis1_(1–352)
# T1 sequence (looked up): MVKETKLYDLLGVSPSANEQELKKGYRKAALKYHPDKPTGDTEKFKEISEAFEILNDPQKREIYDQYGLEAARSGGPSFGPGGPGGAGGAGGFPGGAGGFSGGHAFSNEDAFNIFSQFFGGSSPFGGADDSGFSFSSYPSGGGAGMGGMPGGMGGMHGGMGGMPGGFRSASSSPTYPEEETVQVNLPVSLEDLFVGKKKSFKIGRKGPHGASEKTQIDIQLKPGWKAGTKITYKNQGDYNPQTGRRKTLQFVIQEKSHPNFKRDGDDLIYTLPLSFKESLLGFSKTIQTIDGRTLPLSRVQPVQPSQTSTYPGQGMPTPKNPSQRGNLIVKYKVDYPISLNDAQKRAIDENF
# T2: Sis1_(1–81), J-domain of Sis1 (residues 1–81) (S. cerevisiae, UniProt P25294 1-81)
# T2 construct: Sis1, class B J-domain protein of S. cerevisiae, residues 1-81: J-domain (1-72) and part of the GF region (73-81); 15N-labelled for HSQC, 13C/15N-labelled for the structure; also called 15N-Sis1_(1–81)
# T2 sequence (looked up): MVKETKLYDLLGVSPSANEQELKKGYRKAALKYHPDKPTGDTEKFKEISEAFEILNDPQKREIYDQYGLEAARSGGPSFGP
# B1: TEMPO-labeled CGPTIEEVD peptide (TEMPO-EEVD) (peptide)
# peptide: C(4‑maleimide‑TEMPO)GPTIEEVD
# notes: N-terminal cysteine that carries the spin label; also called spin-labeled EEVD; paramagnetic EEVD peptide; source: synthetic peptide (GenOne Biotechnologies), labelled with 4-maleimide-TEMPO, HPLC (C18) purified
# B2: GPTIEEVD peptide (EEVD peptide, C-terminal motif of HSP70/Ssa1) (peptide)
# peptide: GPTIEEVD
# notes: also called Ssa1-EEVD; source: synthetic peptide (GenOne Biotechnologies, Rio de Janeiro)
# Assays:
# Conditions in all cases: both partners purified
# [1] = target: T1, full-length Sis1 (residues 1–352), …; test: NMR titration; paramagnetic relaxation enhancement: Sis1(1-352) with TEMPO-labeled EEVD peptide, TROSY spectra, paramagnetic against diamagnetic (reduced with ascorbate) intensity ratio
# [2] = target: T2, Sis1_(1–81), J-domain of Sis1 (residues …); test: NMR titration; paramagnetic relaxation enhancement: 15N-Sis1(1-81) titrated with TEMPO-labeled …, 1H-15N HSQC at 900 MHz; diamagnetic sample after reduction with 3 mM ascorbic acid; intensity ratio Ipara/Idia
# [3] = target: T1, full-length Sis1 (residues 1–352), …; test: NMR titration; 1H-15N TROSY of 0.3 mM 15N-Sis1(1-352) free and with GPTIEEVD (1:4 protein:peptide), CSP; 25 mM Tris-HCl pH 7.5, 200 mM NaCl, 10% D2O, 303 K
Binder,binding result [1],binding result [2],binding result [3]
B1,binds,binds,–
B2,–,–,binds
